Data taken from the supplement of paper PMC10266784.

B1: library; numbered along this chain (parent)
chain: MAAAAAAAAEQQSSNGPVKKSMREKAVERRSVNKEHNSNFKAGYIPIDEDRLHKTGLRGRKGNLAICVIILLFILAVINLIITLVIWAVIRIGPNGCDSMEFHESGLLRFKQVSDMGVIHPLYKSTVGGRRNENLVITGNNQPIVFQQGTTKLSVENNKTSITSDIGMQFFDPRTQNILFSTDYETHEFHLPSGVKSLNVQKASTERITSNATSDLNIKVDGRAIVRGNEGVFIMGKTIEFHMGGNMELKAENSIILNGSVMVSTTRLPSSSSGDQLGSGDWVRYKLCMCADGTLFKVQVTSQNMGCQISDNPCGNTH

Variants of: B1
Test: SGCB cell-surface expression functional score (HA stain, bin4 vs bin1, normalised to synonymous) (log10 ratio); higher = more cell-surface SGCB (functional)
Outline: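 Using lentivirus at MOI <0.1, HA-tagged, YFP-fused human beta-sarcoglycan codon-saturation libraries were put into HEK293 cells with stable alpha-, gamma- and delta-sarcoglycan expression, in duplicate transductions. YFP-positive cells were collected by sorting 72 hours later, grown 5–7 days, stained on ice with Alexa Fluor 647 anti-HA, fixed, sorted into four 5% intensity bins and amplicon-sequenced. The functional score takes the median, across codons and transductions, of the log ratio of highest-bin to lowest-bin variant frequency. Within each section, synonymous variants were scaled to mean 0, SD 0.5.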

Variant | SGCB cell-surface expression functional score (log10)
MAAAAAAAAEQQSSNGPVKKSMREKAVERRSVNKEHNSNFKAGYIPIDEDRLHKTGLRGRKGNLAICVIILLFILAVINLIITLVIWAVIRIGPNGCDSMEFHESGLLRFKQVSDMGVIHPLYKSTVGGRRNENLVITGNNQPIVFQQGTTKLSVENNKTSITSDIGMQFFDPRTQNILFSTDYETHEFHLPSGVKSLNVQKASTERITSNATSDLNIKVDGRAIVRGNEGVFIMGKTIEFHMGGNMELKAENSIILNGSVMVSTTRLPSSSSGDQLGSGDWVRYKLPMCADGTLFKVQVTSQNMGCQISDNPCGNTH [C288P] | -0.81
MAAAAAAAAEQQSSNGPVKKSMREKAVERRSVNKEHNSNFKAGYIPIDEDRLHKTGLRGRKGNLAICVIILLFILAVINLIITLVIWAVIRIGPNGCDSMEFHESGLLRFKQVSDMGVIHPLYKSTVGGRRNENLVITGNNQPIVFQQGTTKLSVENNKTSITSDIGMQFFDPRTQNILFSTDYETHEFHLPSGVKSLNVQKASTERITSNATSDLNIKVDGRAIVRGNEGVFIMGKTIEFHMGGNMELKAENSIILNGSVMVSTTRLPSSSSGDQLGSGDWVRYKLQMCADGTLFKVQVTSQNMGCQISDNPCGNTH [C288Q] | -0.16
MAAAAAAAAEQQSSNGPVKKSMREKAVERRSVNKEHNSNFKAGYIPIDEDRLHKTGLRGRKGNLAICVIILLFILAVINLIITLVIWAVIRIGPNGCDSMEFHESGLLRFKQVSDMGVIHPLYKSTVGGRRNENLVITGNNQPIVFQQGTTKLSVENNKTSITSDIGMQFFDPRTQNILFSTDYETHEFHLPSGVKSLNVQKASTERITSNATSDLNIKVDGRAIVRGNEGVFIMGKTIEFHMGGNMELKAENSIILNGSVMVSTTRLPSSSSGDQLGSGDWVRYKLSMCADGTLFKVQVTSQNMGCQISDNPCGNTH [C288S] | -0.07
MAAAAAAAAEQQSSNGPVKKSMREKAVERRSVNKEHNSNFKAGYIPIDEDRLHKTGLRGRKGNLAICVIILLFILAVINLIITLVIWAVIRIGPNGCDSMEFHESGLLRFKQVSDMGVIHPLYKSTVGGRRNENLVITGNNQPIVFQQGTTKLSVENNKTSITSDIGMQFFDPRTQNILFSTDYETHEFHLPSGVKSLNVQKASTERITSNATSDLNIKVDGRAIVRGNEGVFIMGKTIEFHMGGNMELKAENSIILNGSVMVSTTRLPSSSSGDQLGSGDWVRYKLRMCADGTLFKVQVTSQNMGCQISDNPCGNTH [C288R] | -0.93
MAAAAAAAAEQQSSNGPVKKSMREKAVERRSVNKEHNSNFKAGYIPIDEDRLHKTGLRGRKGNLAICVIILLFILAVINLIITLVIWAVIRIGPNGCDSMEFHESGLLRFKQVSDMGVIHPLYKSTVGGRRNENLVITGNNQPIVFQQGTTKLSVENNKTSITSDIGMQFFDPRTQNILFSTDYETHEFHLPSGVKSLNVQKASTERITSNATSDLNIKVDGRAIVRGNEGVFIMGKTIEFHMGGNMELKAENSIILNGSVMVSTTRLPSSSSGDQLGSGDWVRYKLYMCADGTLFKVQVTSQNMGCQISDNPCGNTH [C288Y] | -0.01
MAAAAAAAAEQQSSNGPVKKSMREKAVERRSVNKEHNSNFKAGYIPIDEDRLHKTGLRGRKGNLAICVIILLFILAVINLIITLVIWAVIRIGPNGCDSMEFHESGLLRFKQVSDMGVIHPLYKSTVGGRRNENLVITGNNQPIVFQQGTTKLSVENNKTSITSDIGMQFFDPRTQNILFSTDYETHEFHLPSGVKSLNVQKASTERITSNATSDLNIKVDGRAIVRGNEGVFIMGKTIEFHMGGNMELKAENSIILNGSVMVSTTRLPSSSSGDQLGSGDWVRYKLTMCADGTLFKVQVTSQNMGCQISDNPCGNTH [C288T] | -0.27
MAAAAAAAAEQQSSNGPVKKSMREKAVERRSVNKEHNSNFKAGYIPIDEDRLHKTGLRGRKGNLAICVIILLFILAVINLIITLVIWAVIRIGPNGCDSMEFHESGLLRFKQVSDMGVIHPLYKSTVGGRRNENLVITGNNQPIVFQQGTTKLSVENNKTSITSDIGMQFFDPRTQNILFSTDYETHEFHLPSGVKSLNVQKASTERITSNATSDLNIKVDGRAIVRGNEGVFIMGKTIEFHMGGNMELKAENSIILNGSVMVSTTRLPSSSSGDQLGSGDWVRYKLVMCADGTLFKVQVTSQNMGCQISDNPCGNTH [C288V] | -0.72
MAAAAAAAAEQQSSNGPVKKSMREKAVERRSVNKEHNSNFKAGYIPIDEDRLHKTGLRGRKGNLAICVIILLFILAVINLIITLVIWAVIRIGPNGCDSMEFHESGLLRFKQVSDMGVIHPLYKSTVGGRRNENLVITGNNQPIVFQQGTTKLSVENNKTSITSDIGMQFFDPRTQNILFSTDYETHEFHLPSGVKSLNVQKASTERITSNATSDLNIKVDGRAIVRGNEGVFIMGKTIEFHMGGNMELKAENSIILNGSVMVSTTRLPSSSSGDQLGSGDWVRYKLLMCADGTLFKVQVTSQNMGCQISDNPCGNTH [C288L] | -0.83
MAAAAAAAAEQQSSNGPVKKSMREKAVERRSVNKEHNSNFKAGYIPIDEDRLHKTGLRGRKGNLAICVIILLFILAVINLIITLVIWAVIRIGPNGCDSMEFHESGLLRFKQVSDMGVIHPLYKSTVGGRRNENLVITGNNQPIVFQQGTTKLSVENNKTSITSDIGMQFFDPRTQNILFSTDYETHEFHLPSGVKSLNVQKASTERITSNATSDLNIKVDGRAIVRGNEGVFIMGKTIEFHMGGNMELKAENSIILNGSVMVSTTRLPSSSSGDQLGSGDWVRYKLWMCADGTLFKVQVTSQNMGCQISDNPCGNTH [C288W] | -0.68
